The test system of assay [1] is human melanoma M24 met cells. As to the kind of experiment: M24 met cell adhesion to extracellular matrix proteins. The class given is cell-based. From the text: The compositions of the present invention also have utility in inhibiting metastasis in melanoma, carcinoma and sarcoma patients. […] Thus, methods and compositions for preventing metastases in melanoma, carcinoma and sarcoma patients are also contemplated as within the scope of the present invention.

Another assay relates to MDA-MB-435 tumor on CAM. As to the kind of experiment: MDA-MB-435 tumor induced angiogenesis on chick embryo chorioallantoic membrane (CAM). The class given is in vivo. How it is done: MDA-MB-435 tumor masses were inoculated on CAM of 10-day chick embryos. CN at various dosages were injected intravenously into CAM on day 2 post-inoculation. […] Chick embryo is immunodeficient, and thus allows the growth of implanted MDA-MB-435 tumor. The embryos are incubated at 37° C. with humidity at 60%. CN at various dosages was injected intravenously into CAM on day 2 post-inoculation. […] On the top (FIG. 16A) is the control embryo. The vessels are distributed in a convergent manner with the tumor mass in the center. In the middle (FIG. 16B) is the CAM treated with 20 μg of CN. On the bottom (FIG. 16C) is the CAM treated by 150 μg of CN.

A further assay has as its target purified αvβ5 (Homo sapiens, UniProt P06756+P18084). As to the kind of experiment: Solid-phase binding of contortrostatin to purified αvβ5 (modified ELISA). The following applies: 100 ng αvβ5 per well. How it is done: Experiment 3: Detection of the binding of contortrostatin to αvβ5: Direct evidence that contortrostatin binds to αvβ5 was collected by solid-phase binding assay using purified αvβ5 and a modified ELISA. Soluble αvβ5 (100 ng) was immobilized on wells of a 96-well plate at 4° C. overnight. Excess protein was washed off, and unbound sites were blocked with 1% BSA/PBS. Contortrostatin at various concentrations was allowed to bind to the coated plate at room temperature for one hour. After three washes with PBS, the bound contortrostatin molecules were detected with 1:1,000 antiserum against contortrostatin. Goat anti-rabbit antibody conjugated with alkaline phosphotase was used as a secondary antibody. The bound antibodies were quantitated by applying substrate disodium p-nitrophenyl phosphate (pNPP) and determining the light absorbance at 405 nm 15 minutes after the initiation of the chromagenic reaction. The background is defined by the binding of antiserum against the disintegrin to immobilized αvβ5. Specific binding is obtained by substrating the background from the total binding. Analyses of each concentration of ligand were performed in triplicate.

For another assay, the system named is MDA-MB-435 cells. As to the kind of experiment: Phosphotyrosine immunoblot, MDA-MB-435 cells. Type of assay: cell-based, human. The method, then:
(§1) Cell culture, preparation and stimulation—T24 cells were maintained in RPMI 1640 medium containing 5% fetal bovine serum, and MDA-MB-435 and 293 cells were maintained in Dulbecco's modified Eagle's medium with 10% serum at 37° C. in 5% CO2. Cells were washed with phosphate-buffered saline (PBS) and starved in the appropriate serum-free medium for 6 h at 37° C. Cells were detached by brief treatment with 0.05% trypsin/0.02% EDTA in PBS and collected by centrifugation, resuspended in soybean trypsin inhibitor (1 mg/ml in serum-free medium), and washed in 2% bovine serum albumin/serum-free medium. Cells were maintained in suspension for 1 h in 2% bovine serum albumin/serum-free medium at 37° C. with end-over-end agitation. Quiescent cells (3×10^6/ml) were treated with disintegrins or other reagents while in suspension, or were allowed to adhere to Matrigel (Becton Dickinson, Bedford, Mass.) diluted 1:100 with serum-free medium during treatment.
Lysate preparation and immunoprecipitation—Suspended and adherent cells were washed twice with cold PBS and lysed in cold lysis buffer (50 mM Tris, pH 8.0, 150 mM NaCl, 1% Nonidet P-40, 0.5% deoxycholate, 0.1% SDS, protease inhibitor cocktail, 1 mM sodium pyrophosphate, 1 mM sodium orthovanadate, 50 mM sodium fluoride). After 10-15 min incubation on ice, insoluble material was removed by centrifugation at 14,000 RPM in a microcentrifuge for 15 min. Supernatants were collected and total protein concentrations standardized by the BCA protein assay (Pierce, Rockford, Ill.). Immunoprecipitation was carried out by incubating whole cell lysates (200 μg total protein) with 1.25 μg anti-FAK or anti-CAS mAb 4-6 h at 4° C. followed by 20 μl protein G-agarose overnight at 4° C. Immunoprecipitates were washed 4 times in lysis buffer without inhibitors and dissociated by adding SDS-PAGE sample buffer and boiling 5 min. Whole cell lysates (30 μg total protein) or immunoprecipitates were resolved by 7.5% SDS-polyacrylamide gel electrophoresis and transferred to nitrocellulose membranes.
Immunoblotting—Membranes were blocked with 5% nonfat milk/Tris-buffered saline/0.1% Tween 20 (blocking buffer) 1 h at room temperature or overnight at 4° C. Primary antibody incubations were performed in blocking buffer for 1 h at room temperature. After washing in Tris-buffered saline/0.1% Tween 20, membranes were incubated with horseradish peroxidase-conjugated secondary antibody in blocking buffer 1 h at room temperature. Membranes were washed extensively. Inimunoblots were developed using Super Signar West Pico Chemiluminescent Substrate from Pierce. Densitometry was performed using UN-SCAN-IT™, software (Silk Scientific, Orem, Utah))
(In general: Immunoblotting shows a protein as a band on a membrane.)

For another assay, the system named is αvβ3 293 cells. As to the kind of experiment: Phosphotyrosine immunoblot, 293 cells expressing αvβ3. Type of assay: cell-based, human. The following applies: 10 min. How it is done:
as §1, with “treatment. […]” for “treatment.”
Contortrostatin- induced signaling events are mediated by the αvβ3 integrin—The integrinbinding specificities of echistatin and flavoridin have been determined previously (Niewiarowski et al., supra; and Pfaff, M., McLane, M. A., Beviglia, L., Niewiarowski, S., and Timpl, R. (1994) Cell Adhesion and Communication 2, 491-501). […]

The test system of the next assay is T24 cells. As to the kind of experiment: Cellular binding to laminin and Matrigel. Type of assay: cell-based, human.

Entries after “also recorded” stand apart in the source; their conditions may differ.

Sequence of purified αvβ5 (P06756 31-889 limits assumed): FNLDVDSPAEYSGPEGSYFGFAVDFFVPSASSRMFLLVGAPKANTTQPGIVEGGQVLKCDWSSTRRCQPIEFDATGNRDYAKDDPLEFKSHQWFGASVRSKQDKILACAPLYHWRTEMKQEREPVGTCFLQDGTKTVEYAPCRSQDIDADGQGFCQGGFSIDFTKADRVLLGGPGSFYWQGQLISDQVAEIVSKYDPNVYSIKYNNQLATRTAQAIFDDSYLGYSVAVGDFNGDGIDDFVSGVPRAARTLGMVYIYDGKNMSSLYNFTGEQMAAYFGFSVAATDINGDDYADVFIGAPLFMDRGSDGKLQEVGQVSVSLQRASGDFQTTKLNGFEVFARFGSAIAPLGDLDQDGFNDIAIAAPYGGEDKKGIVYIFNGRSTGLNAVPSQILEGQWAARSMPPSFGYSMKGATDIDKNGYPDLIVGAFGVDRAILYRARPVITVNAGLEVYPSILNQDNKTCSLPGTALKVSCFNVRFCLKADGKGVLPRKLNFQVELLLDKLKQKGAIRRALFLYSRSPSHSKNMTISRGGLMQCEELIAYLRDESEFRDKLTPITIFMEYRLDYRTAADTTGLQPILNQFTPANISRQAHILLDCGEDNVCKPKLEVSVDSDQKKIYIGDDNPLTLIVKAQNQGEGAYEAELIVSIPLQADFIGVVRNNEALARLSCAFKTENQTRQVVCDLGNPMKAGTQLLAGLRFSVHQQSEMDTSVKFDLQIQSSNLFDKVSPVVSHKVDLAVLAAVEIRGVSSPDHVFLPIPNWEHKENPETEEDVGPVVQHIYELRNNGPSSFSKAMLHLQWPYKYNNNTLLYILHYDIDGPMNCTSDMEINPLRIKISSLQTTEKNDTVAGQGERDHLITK
Sequence of purified αvβ5 (P18084 24-799): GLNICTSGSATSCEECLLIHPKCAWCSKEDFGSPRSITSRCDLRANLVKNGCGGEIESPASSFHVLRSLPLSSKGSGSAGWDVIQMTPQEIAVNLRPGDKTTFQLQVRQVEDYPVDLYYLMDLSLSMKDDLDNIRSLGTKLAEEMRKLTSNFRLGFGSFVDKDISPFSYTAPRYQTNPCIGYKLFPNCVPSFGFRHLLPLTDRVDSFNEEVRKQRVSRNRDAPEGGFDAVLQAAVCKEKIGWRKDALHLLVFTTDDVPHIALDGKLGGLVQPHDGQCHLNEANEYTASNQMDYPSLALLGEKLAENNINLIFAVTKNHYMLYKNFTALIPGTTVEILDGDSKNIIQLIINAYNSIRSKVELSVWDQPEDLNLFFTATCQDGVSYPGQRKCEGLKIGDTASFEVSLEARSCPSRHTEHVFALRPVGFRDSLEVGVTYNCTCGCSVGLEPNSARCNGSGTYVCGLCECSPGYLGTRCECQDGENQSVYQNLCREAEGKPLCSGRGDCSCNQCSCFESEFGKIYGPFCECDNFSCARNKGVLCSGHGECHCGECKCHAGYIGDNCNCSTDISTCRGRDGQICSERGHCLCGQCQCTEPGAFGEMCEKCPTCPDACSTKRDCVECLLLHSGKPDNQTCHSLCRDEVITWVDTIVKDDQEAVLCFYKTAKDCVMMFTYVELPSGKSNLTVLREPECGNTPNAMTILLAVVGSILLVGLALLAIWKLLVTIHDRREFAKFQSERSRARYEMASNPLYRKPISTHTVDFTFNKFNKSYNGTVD

B1: contortrostatin (protein)
chain: DAPANPCCDAATCKLTTGSQCADGLCCDQCKFMKEGTVCRRARGDDLDDYCNGISAGCPRNPFHA
In the case of B1, in assay [1], the “M24 met cell adhesion to fibronectin and vitronectin” value was “inhibit”. For the same molecule, the “tumor mass on CAM” value in the assay on MDA-MB-435 tumor on CAM (20 μg of CN) was “smaller than that on control CAM”; with MDA-MB-435 tumor on CAM (150 μg of CN) it was “necrotic tumor mass with volume significantly smaller than control and low dose CN”. Also, the “tumor induced angiogenesis (vessels)” value was “thinner and less dense than control” in the assay on MDA-MB-435 tumor on CAM (20 μg of CN intravenously); “the vessels are even thinner and the convergent distribution pattern disappears completely” with MDA-MB-435 tumor on CAM (150 μg of CN intravenously). Moreover, the “binding to immobilized αvβ5” value with purified αvβ5 was “binds to αvβ5 in a dose-dependent and saturable manner”. In addition, the “concentration giving maximal tyrosine phosphorylation” value in the assay on MDA-MB-435 cells (suspended cells, 10 min) is 10 nM. The “lowest concentration increasing tyrosine phosphorylation of FAK and CAS” value in the assay on MDA-MB-435 cells (tumor cells, soluble contortrostatin) is reported as 1 nM. In the assay with αvβ3 293 cells, the tyrosine phosphorylation result is reported as “robust induction of tyrosine phosphorylation; also recorded: increased tyrosine phosphorylation”. Also, the “cellular binding to Matrigel” value in the assay on T24 cells was “does not inhibit cellular binding to Matrigel”. Moreover, in the assay with T24 cells, the “cellular binding to laminin” value is recorded as “does not significantly inhibit cellular binding to laminin”.

Source of the values: patent US6710030B1, “Contortrostain (CN) and methods for its use in preventing metastasis and other conditions” (University of Southern California, priority 1993, dated 2004).
